Measured values taken from the supplement of paper PMC10567573.

B1: ZNF263 (parent)
chain: LLRHQRIHTGERPYKCPECGKSFS

Variants of: B1
Assay: protein stability index of a GFP-peptide fusion (GPS, HEK-293T) (PSI 1-6); higher = more stable
Details: c terminus: a fixed tail appended
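Note: lentivirally expressed fusions sorted by FACS into six bins by GFP to DsRed ratio, PSI derived from sequencing read proportions per bin multiplied by bin number.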

Row | Variant | protein stability index
1 | R6S | 2.51
2 | R6N | 2.59
3 | S22K | 2.35
4 | S22G | 2.65
5 | S22V | 2.98
6 | S22E | 1.88
7 | S22W | 2.09
8 | S22Q | 2.5
9 | S22R | 2.4
10 | S22I | 2.88
11 | S22H | 2.29
12 | S22P | 2.36
13 | E18R | 2.41
14 | E18H | 2.5
15 | E18Q | 2.41
16 | E18G | 2.3
17 | E18M | 2.46
18 | E18F | 2.48
19 | F23K | 2.83
20 | F23Y | 2.79
21 | F23N | 2.68
22 | F23L | 2.14
23 | F23H | 3.64
24 | F23G | 2.75

Row | Variant | protein stability index
25 | Y14R | 1.94
26 | Y14I | 2.23
27 | Y14H | 2.13
28 | Y14D | 2.24
29 | Y14F | 2.64
30 | Y14Q | 2.11
31 | Y14P | 2.09
32 | C19L | 2.15
33 | C19I | 1.81
34 | C19K | 3.08
35 | C19P | 2.87
36 | C19R | 3.57
37 | R3I | 2.25
38 | R3E | 2.9
39 | R3C | 2.98
40 | R3F | 1.58
41 | R3Y | 1.62
42 | R3P | 2.76
43 | R3S | 2.81
44 | R3W | 2.3
45 | R3Q | 2.34
46 | L2C | 4.89
47 | L2T | 2.71
48 | L2G | 2.76

Row | Variant | protein stability index
49 | L2I | 1.78
50 | L2E | 3.61
51 | L2H | 3.11
52 | L2Q | 2.57
53 | L2Y | 1.82
54 | P17L | 1.91
55 | P17A | 1.83
56 | P17E | 2.26
57 | P17T | 2.38
58 | P17H | 1.8
59 | P17Q | 2.78
60 | P17W | 1.74
61 | P17M | 1.83
62 | P17R | 2.6
63 | P17V | 2.05
64 | P17Y | 1.39
65 | P17I | 2.6
66 | L1R | 4.23
67 | L1H | 2.44
68 | L1T | 2.9
69 | L1P | 2.83
70 | L1K | 3.58
71 | L1D | 2.62
72 | L1A | 2.82

Row | Variant | protein stability index
73 | K15A | 2.52
74 | K15E | 2.66
75 | K15V | 2.4
76 | K15Y | 2.17
77 | K15N | 2.19
78 | K15Q | 2.46
79 | K15F | 2.41
80 | H8T | 2
81 | H8V | 2.48
82 | H8A | 1.86
83 | H8D | 2.53
84 | H8P | 3.3
85 | H8K | 2.44
86 | R12Q | 2.67
87 | R12H | 2.67
88 | R12P | 2.52
89 | R12C | 2.48
90 | R12D | 1.93
91 | H4M | 1.73
92 | H4G | 2.99
93 | H4Q | 2.56
94 | H4W | 1.77
95 | H4P | 2.25
96 | H4I | 1.96

Row | Variant | protein stability index
97 | H4R | 3.38
98 | H4S | 2.23
99 | K21D | 2.38
100 | K21M | 1.59
101 | K21S | 1.84
102 | K21T | 2.16
103 | K21C | 2.11
104 | S24T | 2.08
105 | S24Q | 3.11
106 | S24Y | 2.25
107 | S24K | 2.07
108 | S24E | 1.88
109 | S24L | 2.43
110 | E11L | 1.99
111 | E11W | 2.01
112 | E11K | 2.04
113 | E11Y | 1.88
114 | E11H | 2.7
115 | E11Q | 2.51
116 | E11F | 1.56
117 | E11V | 2.56
118 | E11P | 2.39
119 | Q5R | 2.09
120 | Q5M | 2.21

Row | Variant | protein stability index
121 | Q5N | 2.29
122 | Q5W | 1.66
123 | Q5L | 2.4
124 | Q5A | 2.63
125 | I7E | 2.64
126 | I7T | 2.41
127 | I7F | 2.79
128 | I7R | 2.55
129 | I7Q | 2.31
130 | P13T | 2.56
131 | P13H | 1.64
132 | P13E | 2.48
133 | P13I | 1.87
134 | P13S | 2.02
135 | P13C | 2.16
136 | P13Q | 3.02
137 | P13M | 2.5
138 | P13Y | 1.89
139 | P13F | 2.01
140 | P13A | 3.1
141 | C16K | 3.44
142 | C16P | 3.06
143 | C16R | 3.74
144 | C16H | 3.04

Row | Variant | protein stability index
145 | C16Q | 3.2
146 | C16L | 2.38
147 | C16A | 3.17
148 | G10C | 2.49
149 | G10K | 2.24
150 | G10E | 3.06
151 | G10M | 2.23
152 | G10A | 2.36
153 | G10I | 2.29
154 | G10N | 3.12
155 | T9G | 3.33
156 | T9A | 1.85
157 | T9F | 2.06
158 | T9I | 2.53
159 | T9M | 2.21
160 | G20V | 2.42
161 | G20C | 1.87
162 | G20Y | 1.76
163 | G20R | 1.79
164 | G20E | 1.66
165 | G20P | 1.88
166 | G20N | 2.35
167 | G20M | 2.13
